As a reminder, the Ki is the equilibrium dissociation constant of an inhibitor or competing ligand from its target.

The target in one data set is plasmakallikrein (Homo sapiens, UniProt P03952). The settings on record: cited from earlier work.
The conditions of data set [1]: high doses, including cardiopulmonary bypass operations; cited from earlier work.
A short description of data set [2]: Net charge of the inhibitor. It is filed as physicochemical.
In the next data set the target is T1, granulocyte elastase (Homo sapiens, UniProt P08246).
T1 sequence (P08246 30-267): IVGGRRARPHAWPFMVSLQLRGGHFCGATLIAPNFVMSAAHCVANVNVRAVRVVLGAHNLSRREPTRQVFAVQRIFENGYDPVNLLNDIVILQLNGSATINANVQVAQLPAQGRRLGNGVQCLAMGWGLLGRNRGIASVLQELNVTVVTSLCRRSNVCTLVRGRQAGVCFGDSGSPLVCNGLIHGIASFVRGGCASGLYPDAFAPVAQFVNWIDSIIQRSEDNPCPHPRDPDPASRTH
The settings on record: cited from earlier work.

Another data set deals with T2, Porcine trypsin (Sus scrofa, UniProt P00761).
T2 construct: purchased Novo Nordisk A/S
The data set can be described thus: Inhibition of trypsin by HKIB9 variants. Format: biochemical. The settings on record: at 1 μM. The procedure:
(§1) Their concentration was determined from the absorbance at 214 nm using aprotinin as a standard. Porcine trypsin was obtained from Novo Nordisk A/S, bovine chymotrypsin (TLCK treated) was obtained from Sigma Chemical Co. (St. Louis, Mo., U.S.A.). Human neutrophil cathepsin G and elastase were purified from extracts of PMNs according to the method described by Baugh and Travis, Biochemistry 15, 1976, pp. 836-843.
(§2) Peptidyl nitroanilide substrates S2251 and S2586 were obtained from Kabi (Stockholm, Sweden). S7388 and M4765 were obtained from Sigma Chemical Co.
(§3) Serine proteinases were incubated with various concentrations of the variants for 30 minutes. Substrate was then added and residual proteinase activity was measured at 405 nm.

The target in data set [3] is T3, bovine chymotrypsin (TLCK treated) (Bos taurus, UniProt P00766).
T3 construct: purchased Sigma Chemical Co. (St. Louis, Mo., U.S.A.)
The data set can be described thus: Inhibition of chymotrypsin by HKIB9 variants. Format: biochemical. Conditions: at 1 μM. How it is done:
as §1, §2, §3

In data set [4] the target is T4, Human neutrophil cathepsin G (Homo sapiens, UniProt P08311).
T4 construct: Human neutrophil cathepsin G and elastase were purified from extracts of PMNs; from tissue; host or cells: human polymorphonuclear leukocytes (PMNs), method of Baugh and Travis
T4 sequence (P08311 21-255): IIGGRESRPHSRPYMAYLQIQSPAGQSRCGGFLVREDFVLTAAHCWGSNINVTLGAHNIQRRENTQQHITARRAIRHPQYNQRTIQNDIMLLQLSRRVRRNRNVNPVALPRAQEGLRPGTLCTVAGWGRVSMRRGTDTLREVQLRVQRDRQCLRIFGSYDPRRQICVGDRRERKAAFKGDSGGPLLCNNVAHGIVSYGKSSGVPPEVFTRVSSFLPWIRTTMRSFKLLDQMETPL
The data set can be described thus: Inhibition of cathepsin G by HKIB9 variants. Format: biochemical. Conditions: at 1 μM. The procedure:
as §1, §2, §3

The test system of another data set is collagenase. The settings on record: cited from earlier work.
Data set [5] addresses bovine chymotrypsin (TLCK treated) (bovine) (UniProt P00766).
Data set [6] has as its target Human neutrophil elastase (human, UniProt P08246). The data set can be described thus: enzyme inhibition: proteinase incubated with various concentrations of the variant for 30 min, residual activity on peptidyl nitroanilide substrate at 405 nm. How it is done: as §3

Changes are numbered by the printed parent chain. Numbers in names are those of the source. Where no end group is shown, it is not given here.

T2 sequence (P00761 9-231): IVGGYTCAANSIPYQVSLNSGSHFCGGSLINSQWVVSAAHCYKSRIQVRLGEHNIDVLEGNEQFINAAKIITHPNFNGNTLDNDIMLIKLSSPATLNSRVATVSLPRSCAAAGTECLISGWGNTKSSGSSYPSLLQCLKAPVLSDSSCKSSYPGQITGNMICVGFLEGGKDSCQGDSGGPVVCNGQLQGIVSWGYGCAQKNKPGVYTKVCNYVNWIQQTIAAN
Sequence of plasmakallikrein (P03952 20-638, species assumed): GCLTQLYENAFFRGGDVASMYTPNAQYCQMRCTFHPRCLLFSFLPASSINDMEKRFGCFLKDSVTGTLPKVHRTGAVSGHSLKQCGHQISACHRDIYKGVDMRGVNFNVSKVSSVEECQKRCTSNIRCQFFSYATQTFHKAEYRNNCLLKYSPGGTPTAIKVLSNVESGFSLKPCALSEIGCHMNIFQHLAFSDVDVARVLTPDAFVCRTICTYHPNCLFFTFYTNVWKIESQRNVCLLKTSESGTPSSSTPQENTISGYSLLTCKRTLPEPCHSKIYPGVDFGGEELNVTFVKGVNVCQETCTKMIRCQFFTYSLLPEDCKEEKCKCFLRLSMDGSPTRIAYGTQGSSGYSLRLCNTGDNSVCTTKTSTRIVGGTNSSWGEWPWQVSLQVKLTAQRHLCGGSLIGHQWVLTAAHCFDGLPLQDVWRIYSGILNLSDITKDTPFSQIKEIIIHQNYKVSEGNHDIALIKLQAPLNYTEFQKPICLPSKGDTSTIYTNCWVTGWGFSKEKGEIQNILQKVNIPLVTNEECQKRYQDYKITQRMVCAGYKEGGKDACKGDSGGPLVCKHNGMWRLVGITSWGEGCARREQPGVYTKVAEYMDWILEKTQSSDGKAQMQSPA

aprotinin (3-58, Arg15, Ala17, Ser42): at plasmakallikrein, the plasmakallikrein inhibitory effect entry is “excellent”.
In the case of aprotinin [reference compound], the “blood loss in connection with cardiac surgery” value in data set [1] is listed as “significantly reduces blood loss”. Moreover, in data set [2], the net charge entry is “strongly positive”.
aprotinin (1-58, Ala15): the “effect on / selectivity for granulocyte elastase” value at granulocyte elastase is “weak effect”.
With “[Q15V, T16A]-HKIB9 (DLLPNVCAFPMEKGPCVAYMTRWFFNFETGECELFAYGGCGGNSNNFLRKEKCEKFCKFT) [KFN 1930, HKIB9 Kunitz domain variant produced from yeast strain KFN-1930 (plasmid pKFN-1916)]”, the inhibition of trypsin entry with Porcine trypsin is “not to inhibit”. In addition, the inhibition of chymotrypsin in data set [3] was found to be 5%. Moreover, in [4], the “inhibition of cathepsin G” value is given as “not to inhibit”.
“[Q15V, T16G]-HKIB9 (DLLPNVCAFPMEKGPCVGYMTRWFFNFETGECELFAYGGCGGNSNNFLRKEKCEKFCKFT) [KFN 1902, HKIB9 Kunitz domain variant produced from yeast strain KFN-1902 (plasmid pKFN-1892)]”: the inhibition of trypsin result with Porcine trypsin was “not to inhibit”. In data set [3], this molecule showed an inhibition of chymotrypsin of 5%. Further, the “inhibition of cathepsin G” value in [4] was “not to inhibit”.
aprotinin(1-58, Val15): on granulocyte elastase, the “effect on / selectivity for granulocyte elastase” value was “relatively high selectivity”. Further, the effect on collagenase entry with collagenase is “inhibitory effect”.
On to “HKI B9: novel human Kunitz-type protease inhibitor domain, SEQ ID No. 1, produced from yeast strain KFN-1830 (DLLPNVCAFPMEKGPCQTYMTRWFFNFETGECELFAYGGCGGNSNNFLRKEKCEKFCKFT)”, for which the net charge result in data set [2] is on record as “zero”.

B1: [Q15V, T16G]-HKIB9 (other)
chain: DLLPNVCAFPMEKGPCVGYMTRWFFNFETGECELFAYGGCGGNSNNFLRKEKCEKFCKFT
modifications: ends and bridges not checked; cysteine pairing not given here
Regarding B1, the residual proteinase activity measured at 405 nm in [5] came out at 5%. In [6], this molecule came in with a Ki of 140 nM.

B2: [Q15V, T16A]-HKIB9 (other)
chain: B1 chain with G18A
modifications: ends and bridges not checked; cysteine pairing not given here
B2 had a residual proteinase activity measured at 405 nm in data set [5] of 5%. This molecule also displayed a Ki in data set [6] of 64 nM.

These data come from US5618696A, “Human kunitz-type protease inhibitor and variants thereof” (Novo Nordisk A/S, priority 1992, dated 1997).
